B1: rC5a, Human: reference compound, Complement C5a assay (protein, UniProt P01031 678-751, looked up)
C5a anaphylatoxin: TLQKKIEEIAAKYKHSVVKKCCYDGACVNNDETCEQRAARISLGPRCIKAFTECCVVASQLRANISHKDMQLGR
modifications: C5a anaphylatoxin
B2: EGF: reference compound, Epidermal Growth Factor assay (protein, UniProt P01133 23-1207, looked up)
Pro-epidermal growth factor: PQHWSCPEGTLAGNGNSTCVGPAPFLIFSHGNSIFRIDTEGTNYEQLVVDAGVSVIMDFHYNEKRIYWVDLERQLLQRVFLNGSRQERVCNIEKNVSGMAINWINEEVIWSNQQEGIITVTDMKGNNSHILLSALKYPANVAVDPVERFIFWSSEVAGSLYRADLDGVGVKALLETSEKITAVSLDVLDKRLFWIQYNREGSNSLICSCDYDGGSVHISKHPTQHNLFAMSLFGDRIFYSTWKMKTIWIANKHTGKDMVRINLHSSFVPLGELKVVHPLAQPKAEDDTWEPEQKLCKLRKGNCSSTVCGQDLQSHLCMCAEGYALSRDRKYCEDVNECAFWNHGCTLGCKNTPGSYYCTCPVGFVLLPDGKRCHQLVSCPRNVSECSHDCVLTSEGPLCFCPEGSVLERDGKTCSGCSSPDNGGCSQLCVPLSPVSWECDCFPGYDLQLDEKSCAASGPQPFLLFANSQDIRHMHFDGTDYGTLLSQQMGMVYALDHDPVENKIYFAHTALKWIERANMDGSQRERLIEEGVDVPEGLAVDWIGRRFYWTDRGKSLIGRSDLNGKRSKIITKENISQPRGIAVHPMAKRLFWTDTGINPRIESSSLQGLGRLVIASSDLIWPSGITIDFLTDKLYWCDAKQSVIEMANLDGSKRRRLTQNDVGHPFAVAVFEDYVWFSDWAMPSVMRVNKRTGKDRVRLQGSMLKPSSLVVVHPLAKPGADPCLYQNGGCEHICKKRLGTAWCSCREGFMKASDGKTCLALDGHQLLAGGEVDLKNQVTPLDILSKTRVSEDNITESQHMLVAEIMVSDQDDCAPVGCSMYARCISEGEDATCQCLKGFAGDGKLCSDIDECEMGVPVCPPASSKCINTEGGYVCRCSEGYQGDGIHCLDIDECQLGEHSCGENASCTNTEGGYTCMCAGRLSEPGLICPDSTPPPHLREDDHHYSVRNSDSECPLSHDGYCLHDGVCMYIEALDKYACNCVVGYIGERCQYRDLKWWELRHAGHGQQQKVIVVAVCVVVLVMLLLLSLWGAHYYRTQKLLSKNPKNPYEESSRDVRSRRPADTEDGMSSCPQPWFVVIKEHQDLKNGGQPVAGEDGQAADGSMQPTSWRQEPQLCGMGTEQGCWIPVSSDKGSCPQVMERSFHMPSYGTQTLEGGVEKPHSLLSANPLWQQRALDPPHQMELTQ
modifications: Pro-epidermal growth factor

Experiments:
[1] = molecular target: Complement C5a (Homo sapiens, UniProt P21730); assay: Complement C5a (Human); [125I]BH-rC5a; format: binding; conditions: reference compound, QA/QC; read-out: Ref Kj
Complement C5a, sequence (P21730 whole entry): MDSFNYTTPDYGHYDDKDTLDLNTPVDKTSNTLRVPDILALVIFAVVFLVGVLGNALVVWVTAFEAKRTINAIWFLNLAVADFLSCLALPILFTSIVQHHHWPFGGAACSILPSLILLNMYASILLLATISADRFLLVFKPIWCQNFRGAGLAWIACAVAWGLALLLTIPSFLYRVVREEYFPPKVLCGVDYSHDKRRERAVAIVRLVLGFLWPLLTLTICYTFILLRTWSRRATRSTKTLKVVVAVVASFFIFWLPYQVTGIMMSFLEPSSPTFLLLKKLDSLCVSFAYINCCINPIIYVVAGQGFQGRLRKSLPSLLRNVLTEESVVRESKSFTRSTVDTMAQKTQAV

[2] = molecular target: Epidermal Growth Factor, EGF; assay: Epidermal Growth Factor, EGF; [125I]EGF; format: binding; conditions: reference compound, QA/QC; read-out: Ref Kj

| Molecule | Ki [1] [nM] | Ki [2] [nM] |
| --- | --- | --- |
| B1 | 0.619 |  |
| B2 |  | 3.2 |

— patent publication US20020187514A1 (priority 1999, published 2002)
